According to the DeepSol protein solubility set:

Test: soluble on expression in E. coli; label from the status in PepcDB or PDB records

Sequence: MGSDKIHHHHHHMTGKTVDLKLPAKLDGLFKPCRYKVMYGGRGGGKSHGAASALLALGAQRPLRILCAREIQKSMRDSVHRLLKDKVAQLGLGHFYEITDFEIRGANGTLFVFSGLQSHTVDSIKSFEGIDIVWVEEGHGVSKKSWDVLTPTIRKEGSEIWITLNPDMETDETYRRFIAMPSEDTWLCEINWRDNPWFPEALNRERLKAQRSMNKEDYGNIWEGRPRMVSEGAVYRHEIQDAFHSGRVTLVPYDSSLPVHTVWDLGWNDAMTIGLVQRDLTSVRIIGYIEDTHRTLDWYVAELEKLPYRWGTDFLPHDGRTRNFQTGKSTMEILTGLGRKSVFVQNATGIEEGIRAARMLFPKVYFDKDKTARLLECLKRYGRQIHAKTGVAMGPLHDEYSHGADMFRYLAQAVDLMDTGSNTGYTETPVSDWRLY
- soluble on expression in E. coli: not soluble

Sequence: ETDKKGENAPDTKRIKETLEKFSLENMRYVGILKSGQKVSGFIEAEGYVYTVGVGNYLGQNYGRIESITDDSIVLNELIEDSTGNWVSRKAELLLNSSDKNTEQAAAPAAEQN
- soluble on expression in E. coli: soluble

Sequence: MRLGICSHTLCPPIEGNIKQHLHNPMKEEEFNELKQNLDSYTPLLPESVTDYFMEKAGVVTSDQSVKKLVSLLAHKFVTDIAVSSFQYHRINQKAAQKDKRFAKEKKPTFQLVDLEKALEEVGISISRPHYYM
- soluble on expression in E. coli: not soluble

Sequence: MKDNEIISLFELRDEHAIEALSDKYHPYCYKIAWNLLTNKEDSEECLNDTWFSVWSLIPPKKPSVLSHFCGRITRNLSIDRLRKKYADRRPDLHMADVLGEMDHLSVTYTIEDQLAEKELLEIINDFLGKMNAEDRDIFVRRYWFFDSIAAIAKRHAMSVGSVKMNLYRSRKKLLKVLKKEGKHL
- soluble on expression in E. coli: not soluble

Sequence: MAKMTTLKMKERLEKELQAPNRQFSYNRDNDALTVVQSGKKVTLAIPQIIANYENDGDAAVEKIVYYVEEGFRAAAGNVELENNKANVYPVVRATSFPGETKAGEVLLTDDHTAETKIFYAVDLGKSYRFIEESMLKKAQLTHEEIREAAFNNLANLEIPLKKDSVNGNDFYFVRTNDGYDASRLLNEAFLREMREKLTGEMVLAVPHQDVLIIGDIQDNTGYDVLAHMTMDFFADGLVPITSLPFVYNNGKLEPIFIMAKNRLKE
- soluble on expression in E. coli: not soluble

Sequence: MVKWQATLSTTEPYNYIGIQNVRQGNRNTEVLEAILVENALPLDLTGCEVFFESVIDNKYPIQRAAKIVNAKKGIIQYTFDEYSMQSLHRQEAYFSIHKGDNLIGSTQNFSYFVVNAASKTEGEMGSYWQSIEDLIADMTAFINENKGDFTAWMNARKEEFEKWRKNQQDTFEAWRNGQETDYLKWFESIKDILKTIDPGGTMLAELMDARVDIQGVRHNSLSERLLADMNYLYHRLEERLYTIKYGNVNTLEILEDDSFSKNHEVEVLGTVNHPIEEGALIIATVDDSKQNVFTIEGVDNG
- soluble on expression in E. coli: not soluble

Sequence: MGSDKIHHHHHHMRLPDAGFRRYIVVAGRRNVGKSSFMNALVGQNVSIVSEYAGTTTDPVYKSMELYPVGPVTLVDTPGLDDVGELGRLRVEKARRVFYRADCGILVTDSEPTPYEDDVVNLFKEMEIPFVVVVNKIDVLGEKAEELKGLYESRYEAKVLLVSALQKKGFDDIGKTISEILPGDEEIPYLGDLIDGGDLVILVVPIDLGAPKGRLIMPQVHAIREALDREAIALVVKERELRYVMENIGMKPKLVITDSQVVMKVASDVPEDVELTTFSIVESRYRGDLAYFVESVRKIEELEDGDTVVIMEGCTHRPLTEDIGRVKIPRWLVNHTGAQLNFKVIAGKDFPDLEEIEGAKLIIHCGGCVLNRAAMMRRVRMAKRLGIPMTNYGVTISYLHGVLDRAIRPFREEVKV
- soluble on expression in E. coli: not soluble

Sequence: MGSDKIHHHHHHMRPRILLYTGKGGVGKTSIAAATGALLSSKGHKTLIISTDPAHSLGDAFGMEIGHSIKQLADNLYGQEVSVVQSINEHWGELKDYLRSLFLSQGLDPVSADEIATLPGFEEASELLYLRNYYYDEEYDTIIMDSAPTGAALQLLSFPEVMTWYMDKLFPISRKTARVARPLLKPFVDIPLPEDAVFENIDLLYRQLTDIRKILTNNDVTSIRLVTNPDNMSYSETKRAYTYLLLYGYPVDAVIINKILSDETGDFFEKMRGSQKDIITEMENSFVDIKIFKARLLQEEPIGIKKLIELGKLIYGDEDPYKVFYKGTPIKYTKNGDRYILKIKMPFAEKEKLNLFNHGGELTIEIANWKRVFYLPESISDKRPVSAEYSNGYLNVILE
- soluble on expression in E. coli: not soluble

Sequence: MGSDKIHHHHHHMSSFSLDFSLGTFQPLAAKMRPQTLKQYCGQEHLIGAGKPLYKAIENGHIHSMIFWGPPGTGKTTLAEIIAQQIHAQVERISAVTAGVKEIRESIERAKQNRLMGQQTILFVDEVHRFNKTQQDAFLPHIENGTIIFIGATTENPSFELNNALLSRVKVYILKPLTTSNIVTVLQNAIQDAEQGLGKERLIFAENVLETLAEYVNGDARLALNCLELMVDMADETEKGKLINHHLLTEVLGERQARFDKQGDRFYDLISALHKSIRGSAPDAALYWYARIITAGGDPLYVARRLLAIASEDVGNADPRAMQVALAAWDCFTRVGAAEGERAIAQAIVYLAVAPKSNAVYVAFKQAKKLAKEMPDYDVPVHLRNAPTHLMKELGYGAEYRYAHDEPNAYAAGEIYFPEELKNTKFYFPTDRGLEIQLKEKLARLHNLDEQSTKKRYK
- soluble on expression in E. coli: not soluble

Sequence: MDRVALKPFRRIAVILLAGAVIATSTSCSRDERKKEEEKHLESMMSILVQVQKNLGRIRQKEAVVVRLSSDVEGRKPKSAEQIGREINTNIRFIDSTLSASKNLVATLEKQNHESQYRIAALDRMTGQLKGELDKKELELGAMKREIAKLNRQIARLTNTVDVMDEAISDQEDQMVKAYYVVGTVDQLVSKGILVPPGPFSRFFGMRPVLANDFDLRPFRQVDITETKDIYFDKPVSRLHVITPHTKGSYELVGGKTSSLLLIRNEAEFWKKSRCLVIVVE
- soluble on expression in E. coli: not soluble

Sequence: GRTVVVTTIMESPYVMYKKNHEMFEGNDKYEGYCVDLASEIAKHIGIKYKIAIVPDGKYGARDADTKIWNGMVGELVYGKAEIAIAPLTITLVREEVIDFSKPFMSLGISIMIKKGTPIESAEDLAKQTEIAYGTLDSGSTKEFFRRSKIAVYEKMWTYMRSAEPSVFTRTTAEGVARVRKSKGKFAFLLESTMNEYIEQRKPCDTMKVGGNLDSKGYGVATPKGSSLRTPVNLAVLKLSEAGVLDKLKNKWWYDKGECG
- soluble on expression in E. coli: soluble

Sequence: MAHHHHHHMPRIEISKDVKLTIMSYNIQMLSIPFSVHLNSWTRRNAIIDYICSLDDIYDIDILVLNEVFTKKCYKLLTSGKIKEKFPYHTNVIGRNYKRHDNYNDSSSSTGQKDGLSFHSSDTNINIESSRGISNYVSEQMEYIRKNKENHKNKLSKISEDISENSNSSYNSNFDTITGKRKFFHFVNGGVIVLSKHKILHKHALIYSSGKFPDVFCSKGAIYLKCDVMNKKVNVVATHLQAGDNKEQQKCRWKQIDELSKWVYEGIPSTFIKKFESLFFVGDFNIRYNADRLFLDKVLSDNYLNSYVTKKSLDTTYDSFLNDYCRYIERDYNYKHKYTLDYILVANNSNVEIIVPQTSIQNYYKSLYFIKFFLGIIPYKTTYIHHPSDHFPIYATFLILS
- soluble on expression in E. coli: soluble

Sequence: MGSDKIHHHHHHMEVQLPKIKTVRVMLAGMTAQQESVFKMAFKMHNTTRYETVSPSDGSAVPDLVLADTDAEGGFELWKELAGRYKAIPVAVCSEKVPDSEVPYLPKPIRFETLFPMLRKLLQGENVYGKSFIAPADRSAKNNGNVQRTVTIRQFNPNKGLLGALRFAEKNRQDIAILHGNKPVLNCFPLDTTGFADRKCVKTRRIVQRRKFAGQLQDCSR
- soluble on expression in E. coli: not soluble

Sequence: MNMVGHSYGNIAIVYYMLQHGSDTSLPKLVKQVDIAGHFNGIIGMDEPEENSLDGEGKPTSMTGSYEELLSLGDNYPQGQVEVLNIYGNTGKESDERVTNLSSQSLAYLLKGHVKSYQEKKITGLNGQHSKLHETTLVDKPLNAFLWGK
- soluble on expression in E. coli: not soluble

Sequence: MTARDDETIAFYSGHATAYTSRGQAPDRPHLETFLARLRAGAKILELGCGGGQDSEYMLSAGFDVHPTDGTPDIAKAAQARLGIPVRTLLFENIEDAALYDAVWANACLLHVPRLALPGIIGRIHTALKPGGVFYASFKAGEVEGRDTFGRYYNYPSKAWLEETYGQFAWTEVEIEARQGSGYDKLPTDWLHVTATKA
- soluble on expression in E. coli: soluble

Sequence: MTPAELKRLYHIIKVQLEYGLDELLPDHQLTKAPLLMRKSLFWIKNQHPEKPLGERLRLALQELGPVWIKFGQMMSTRRDLFPPHIADPLALLQDQVAPFDGELAKQQMEKALGGPLENWFTEFDIKPLEHHHHHH
- soluble on expression in E. coli: not soluble

Sequence: MTVLMRLVASAYSIAQKAGMIVRRVIAEGDLGIVEKTCATDLQTKADRLAQMSICSSLARKFPKLTIIGEEDLPSEEVDQELIEDSQWEEILKQPCPSQYSAIKEEDLVVWVDPLDGTKEYTEGLLDNVTVLIGIAYEGKAIAGVINQPYYNYEAGPDAVLGRTIWGVLGLGAFGFQLKEVPAGKHIITTTRSHSNKLVTDCVAAMNPDAVLRVGGAGNKIIQLIEGKASAYVFASPGCKKWDTCAPEVILHAVGGKLTDIHGNVLQYHKDVKHMNSAGVLATLRNYDYYASRVPESIKNALVPAHHHHHH
- soluble on expression in E. coli: soluble

Sequence: MGSDKIHHHHHHMDITLFKTLLKVAAIGNISKAAAVLCVTQSAVSRRLKQLEDHIGKPLLIRSGNAVRPTEAGQFVLAKAQQIVDLESQIVDKLNVNEPKQRISLCCTPAFGIGRLPSIVSAFMADNAESADLNFVFNMPEQALEGIENGRFDLAIIEHCDDLNMAGHRGYPLPDDEMIFLSAPSLGIDSPAPSIEQLFDKRLYLKNEQGCARRFLDKNLALTGHSITEFANIIYFDDLQFIMREVLAGKGISFVPIGLVVDELCRHTLMAHRIADFDHFYPRTIILGRRAPSPLLLSFINTIYIAFGMPCPSIFHTEAPFPPEGFPESL
- soluble on expression in E. coli: not soluble

Sequence: MIYIIGSGIAGLSAGVALRRAGKKVTLISKRIDGGSTPIAKGGVAASVGSDDSPELHAQDTIRVGDGLCDVKTVNYVTSEAKNVIETFESWGFEFEEDLRLEGGHTKRRVLHRTDETGREIFNFLLKLAREEGIPIIEDRLVEIRVKDGKVTGFVTEKRGLVEDVDKLVLATGGYSYLYEYSSTQSTNIGDGMAIAFKAGTILADMEFVQFHPTVTSLDGEVFLLTETLRGEGAQIINENGERFLFNYDKRGELAPRDILSRAIYIEMLKGHKVFIDLSKIEDFERKFPVVAKYLARHGHNYKVKIPIFPAAHFVDGGIRVNIRGESNIVNLYAIGEVSDSGLHGANRLASNSLLEGLVFGINLPRYVDSSWEGISTDDGIVHSVRISGNKTLSLKEIRRINWENVGIIRNEEKLVKAINTYSSSTQNEAIISYLTALAAEIRKESRGNHFREDYPYKDPNWEKRIYFKLVV
- soluble on expression in E. coli: soluble

Sequence: MNSLLAELNRLGVAHATTEDVFIFVDRLFQHFSFLFQAEESGPRRLELVASVFEHLTVECVNDILDACSHPDVNVAETSNTCRPCPSPVPSAPKTVSGAQTSCATPRAPVTLEHHHHHH
- soluble on expression in E. coli: not soluble

Sequence: AGLENTDHTNNEHRLTQLLSIAEECETLDRLKQLVDSGRIFTAYNGFEPSGRIHIAQALITVMNTNNMIECGGQMIIYIADWFAKMNLKMNGDINKIRELGRYFIEVFKACGINLDGTRFIWASEFIASNPSYIERMLDIAEFSTISRVKRCCQIMGRNESDCLKASQIFYPCMQAADVFELVPEGIDICQLGIDQRKVNMLAIEYANDRGLKIPISLSHHMLMSLSGPKKKMSKSDPQGAIFMDDTEQEVSEKISRAYCTDETFDNPIFEYIKYLLLRWFGTLNLCGKIYTDIESIQEDFSSMNKRELKTDVANYINTIIDLVREHFKKPELSELLSNVKSYQQPSK
- soluble on expression in E. coli: soluble

Sequence: MHTQVHTARLVHTADLDSETRQDIRQMVTGAFAGDFTETDWEHTLGGMHALIWHHGAIIAHAAVIQRRLIYRGNALRCGYVEGVAVRADWRGQRLVSALLDAVEQVMRGAYQLGALSSSARARRLYASRGWLPWHGPTSVLAPTGPVRTPDDDGTVFVLPIDISLDTSAELMCDWRAGDVW
- soluble on expression in E. coli: soluble
